For 50 molecules, Ki results are on record in patent US11814447B2, “Peptide ligands for binding to EphA2” (BICYCLERD LIMITED, priority 2018, dated 2023).

Starred links: 1 amine or outer side, 2 acyl side, 3 side chain; linkers in the order of their positions; H or OH if unused. Positions of bridges follow the written chain, without caps; N, C: chain ends. Non-standard residues stand in square brackets, D forms with d. Primed or numbered codes have the meaning given here. No end group written: not given here. TBMB′ = 1,3,5-tris(bromomethyl)benzene, 1,3,5-tris(methylene)benzene core, three thioethers to Cys; TATA = O=C(CC[*:1])N1CN(C(=O)CC[*:2])CN(C(=O)CC[*:3])C1; Phe(4-Br) = N[C@@H](Cc1ccc(Br)cc1)C(=O)O; 2Nal = N[C@@H](Cc1ccc2ccccc2c1)C(=O)O; TBMB = c1c(C[*:1])cc(C[*:3])cc1C[*:2]; Pip = O=C(O)[C@@H]1CCCCN1; Aib = CC(C)(N)C(=O)O; Sar = CNCC(=O)O

B1: Bicycle Compound Number 69 (TATA scaffold), Ac-A(HArg)DCPLVNPLCLHPGWTCA-Sar6-(D-K) (peptide)
peptide: AXDCPLVNPLCLHPGWTCAXXXXXXK
modifications: N-terminal acetyl; X2 = HArg (homoarginine); X at 20-25 = Sar; K26 = D-Lys; 3 Cys thioether-linked to TATA scaffold

One experiment deals with T1, Human EphA2 (Ecto) (Human, UniProt P29317 24-537).
T1 construct: extracellular domain; in-house)
T1 sequence (P29317 24-537): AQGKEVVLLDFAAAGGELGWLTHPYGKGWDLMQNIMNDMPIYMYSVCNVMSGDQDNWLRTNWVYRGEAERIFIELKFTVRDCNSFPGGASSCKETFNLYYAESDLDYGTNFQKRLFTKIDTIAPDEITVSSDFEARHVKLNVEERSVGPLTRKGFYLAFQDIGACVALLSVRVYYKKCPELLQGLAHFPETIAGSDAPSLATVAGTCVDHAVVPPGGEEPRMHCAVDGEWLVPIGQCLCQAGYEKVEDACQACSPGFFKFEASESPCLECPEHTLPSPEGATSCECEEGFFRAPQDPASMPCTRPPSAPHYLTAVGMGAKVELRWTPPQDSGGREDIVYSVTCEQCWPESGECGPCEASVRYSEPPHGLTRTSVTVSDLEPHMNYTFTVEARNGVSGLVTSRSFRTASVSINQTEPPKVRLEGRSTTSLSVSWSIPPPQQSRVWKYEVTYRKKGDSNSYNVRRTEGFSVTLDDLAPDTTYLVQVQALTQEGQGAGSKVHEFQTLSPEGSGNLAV
Description: FP competition; tracer Reference Compound C. As to the method:
(§1) Peptides without a fluorescent tag were tested in competition with a peptide with a fluorescent tag and a known Kd (Table 2). Peptides were diluted to an appropriate concentration in assay buffer as described in the direct binding assay with a maximum of 5% DMSO, then serially diluted 1 in 2. […] Measurements were conducted as for the direct binding assay, however the gain was determined prior to the first measurement. Data analysis was in Systat Sigmaplot version 12.0 where the mP values were fit to a user defined cubic equation to generate a Ki value: […]
ACPLVNPLCLHPG[2Nal]TCLHG (linker 2-9-16 via TATA) [Bicycle Compound Number 79 (TATA scaffold), ACPLVNPLCLHPG(2Nal)TCLHG] gave a Ki of 162 nM.
Same read-out and setting: next, ACSSCWAYPDSVCA (linker 2-5-13 via TATA) [Bicycle Compound Number 38 (TATA scaffold), ACSSCWAYPDSVCA]: 400 nM.
The same measure, in the same setting: next, RPACPLVNPLCLHPGWTCA (linker 4-11-18 via TATA) [Bicycle Compound Number 70 (TATA scaffold), RPACPLVNPLCLHPGWTCA]: 10.1 nM; RPPCPLVNPLCLHPGWTCA (linker 4-11-18 via TATA) [Bicycle Compound Number 71 (TATA scaffold), RPPCPLVNPLCLHPGWTCA]: 11.1 nM; ACPLVNPLCLTPGWTCTNT (linker 2-9-16 via TATA) [Bicycle Compound Number 94 (TATA scaffold), ACPLVNPLCLTPGWTCTNT]: 13.2 nM.
For the molecule ACPLVNPLCLHPG[2Nal]SCRGQ (linker 2-9-16 via TATA) [Bicycle Compound Number 93 (TATA scaffold), ACPLVNPLCLHPG(2Nal)SCRGQ], the Ki was determined as 228 nM.
Ac-CPLVNPLCLHPGWTCLHG (linker 1-8-15 via TATA) [Bicycle Compound Number 74 (TATA scaffold), Ac-CPLVNPLCLHPGWTCLHG] registered a Ki of 1.76 nM.
Regarding ACGFMGLEPCELFCMPK (linker 2-10-14 via TATA (inferred)) [Bicycle Compound Number 47 (TATA scaffold), ACGFMGLEPCELFCMPK], the Ki turned out to be 185 nM.
As to ACPLVNPLCLMPGWGCA (linker 2-9-16 via TATA (inferred)) [Bicycle Compound Number 59 (TATA scaffold), ACPLVNPLCLMPGWGCA], the Ki stood at 114 nM.
Same read-out and setting: next, ACPLVNPLCLLDGWTCA (linker 2-9-16 via TATA (inferred)) [Bicycle Compound Number 58 (TATA scaffold), ACPLVNPLCLLDGWTCA]: 38.4 nM.
Consider ACPLVNPLCMMGGWKCA (linker 2-9-16 via TATA (inferred)) [Bicycle Compound Number 62 (TATA scaffold), ACPLVNPLCMMGGWKCA], for which the Ki worked out at 67.1 nM.
Molecule B1 showed a Ki of 17.5 nM. This Ki is about 3.8-fold lower than that of the molecule before.
On to ACPLVNPLCLMTGWSCA (linker 2-9-16 via TATA (inferred)) [Bicycle Compound Number 61 (TATA scaffold), ACPLVNPLCLMTGWSCA], for which the affinity, expressed as Ki, was 242 nM.
Molecule ACPLVNPLCLEPGWTCAKR (linker 2-9-16 via TATA) [Bicycle Compound Number 85 (TATA scaffold), ACPLVNPLCLEPGWTCAKR] registered a Ki of 10.9 nM.
As to XXXXXXXXXXXACPLVNPLCLHPGWTCLHG (N-terminal (β-Ala)-Sar10; 3 Cys thioether-linked to TATA scaffold) [Bicycle Compound Number 75 (TATA scaffold), (β-Ala)-Sar10-ACPLVNPLCLHPGWTCLHG], the affinity corresponds to a Ki of 2.48 nM.
With ACGFMGLEPCVTYCA (linker 2-10-14 via TATA) [Bicycle Compound Number 43 (TATA scaffold), ACGFMGLEPCVTYCA], the Ki amounted to 234 nM.
Same read-out and setting: next, Ac-CPLVNPLCLHPGWSCRGQ (linker 1-8-15 via TATA) [Bicycle Compound Number 88 (TATA scaffold), Ac-CPLVNPLCLHPGWSCRGQ]: 1.64 nM.
In turn, ACGFMGLEPCELFCA (linker 2-10-14 via TATA (inferred)) [Bicycle Compound Number 46 (TATA scaffold), ACGFMGLEPCELFCA] gave a Ki of 81.7 nM.
Turning to ACGFMGLEPCELVCA (linker 2-10-14 via TATA) [Bicycle Compound Number 44 (TATA scaffold), ACGFMGLEPCELVCA], the Ki is 127 nM. Compared with the last molecule, the Ki is about 1.6-fold higher.
Still for that read-out and setting: next, ACGFMGLEPCEMYCA (linker 2-10-14 via TATA (inferred)) [Bicycle Compound Number 50 (TATA scaffold), ACGFMGLEPCEMYCA]: 140 nM; ACGFMGLEPCETFCA (linker 2-10-14 via TATA) [Bicycle Compound Number 40 (TATA scaffold), ACGFMGLEPCETFCA]: 188 nM; ACGFMGLEPCEMVCA (linker 2-10-14 via TATA) [Bicycle Compound Number 42 (TATA scaffold), ACGFMGLEPCEMVCA]: 320 nM.
As to ACPLVNPLCLTSGWKCA (linker 2-9-16 via TATA (inferred)) [Bicycle Compound Number 52 (TATA scaffold), ACPLVNPLCLTSGWKCA], affinity was put at a Ki of 115 nM.
The molecule ACQSCWAYPDTYCA (linker 2-5-13 via TATA) [Bicycle Compound Number 39 (TATA scaffold), ACQSCWAYPDTYCA] had a Ki of 321 nM.
For ACGFMGLVPCNVFCA (linker 2-10-14 via TATA (inferred)) [Bicycle Compound Number 45 (TATA scaffold), ACGFMGLVPCNVFCA], the affinity, expressed as Ki, was 142 nM.
As for ACGFMGLEPCELYCAHT (linker 2-10-14 via TATA (inferred)) [Bicycle Compound Number 49 (TATA scaffold), ACGFMGLEPCELYCAHT], affinity was put at a Ki of 144 nM.
Still for that read-out and setting: next, ACPLVNPLCLHPGWTCA (linker 2-9-16 via TATA (inferred)) [Bicycle Compound Number 64 (TATA scaffold), ACPLVNPLCLHPGWTCA]: 30 nM; ACPLVNPLCLHPGWSCA (linker 2-9-16 via TATA) [Bicycle Compound Number 86 (TATA scaffold), ACPLVNPLCLHPGWSCA]: 56.1 nM; ACPMVNPLCLHPGWICA (linker 2-9-16 via TATA (inferred)) [Bicycle Compound Number 53 (TATA scaffold), ACPMVNPLCLHPGWICA]: 15.4 nM.
ACPLVNPLCLEPGWTCA (linker 2-9-16 via TATA) [Bicycle Compound Number 84 (TATA scaffold), ACPLVNPLCLEPGWTCA] gave a Ki of 53.9 nM. Against the preceding molecule, the Ki is about 3.5-fold higher.
As to ACPLVNPLCLHPGWICA (linker 2-9-16 via TATA (inferred)) [Bicycle Compound Number 54 (TATA scaffold), ACPLVNPLCLHPGWICA], the Ki came to 15.2 nM. Compared with the last molecule, the Ki is about 3.5-fold lower.
As for ACPLVNPLCLVPGWSCA (linker 2-9-16 via TATA (inferred)) [Bicycle Compound Number 57 (TATA scaffold), ACPLVNPLCLVPGWSCA], the Ki amounted to 35.4 nM.
The same measure, in the same setting: next, ACPLVNPLCLAPGWTCA (linker 2-9-16 via TATA) [Bicycle Compound Number 82 (TATA scaffold), ACPLVNPLCLAPGWTCA]: 46.2 nM; ACPMVNPLCLHPGWTCA (linker 2-9-16 via TATA) [Bicycle Compound Number 97 (TATA scaffold), ACPMVNPLCLHPGWTCA]: 20 nM; ACPLVNPLCLHPGWRCA (linker 2-9-16 via TATA (inferred)) [Bicycle Compound Number 55 (TATA scaffold), ACPLVNPLCLHPGWRCA]: 20.6 nM.
In the case of ACGFMGLVPCEVHCA (linker 2-10-14 via TATA) [Bicycle Compound Number 41 (TATA scaffold), ACGFMGLVPCEVHCA], the Ki was 155 nM.
The same measure, in the same setting: next, ACPDWGKYCAYPDTICA (linker 2-9-16 via TATA) [Bicycle Compound Number 36 (TATA scaffold), ACPDWGKYCAYPDTICA]: 160 nM; ACPLVNPLCMIGNWTCA (linker 2-9-16 via TATA (inferred)) [Bicycle Compound Number 60 (TATA scaffold), ACPLVNPLCMIGNWTCA]: 96.2 nM.
ACGFMGLVPCELYCADN (linker 2-10-14 via TATA (inferred)) [Bicycle Compound Number 51 (TATA scaffold), ACGFMGLVPCELYCADN] gave a Ki of 84.4 nM.
Same read-out and setting: next, ACPLVNPLCLYGSWKCA (linker 2-9-16 via TATA (inferred)) [Bicycle Compound Number 63 (TATA scaffold), ACPLVNPLCLYGSWKCA]: 59 nM; TPRCPLVNPLCLMPGWTCA (linker 4-11-18 via TATA) [Bicycle Compound Number 81 (TATA scaffold), TPRCPLVNPLCLMPGWTCA]: 9.8 nM; ACPLVNPLCNLPGWTCA (linker 2-9-16 via TATA (inferred)) [Bicycle Compound Number 56 (TATA scaffold), ACPLVNPLCNLPGWTCA]: 184 nM.

The target in a further experiment is T2, Human EphA2 (Ecto), C-terminal polyHis (Human, UniProt P29317 24-537).
T2 construct: extracellular domain; also called EPH receptor A2; ephrin type-A receptor 2
T2 sequence (P29317 24-537): as the sequence (P29317 24-537) above
The experiment is described as follows: fluorescence polarisation competition; competitor fluorescent Compound 66. As to the method:
as §1
On to [Sar][Sar]ACPWG[Pip]FWCPVNRPGC (linker 4-11-18 via TBMB′, also called Compound 82) [Bicycle Compound Number 82 (TBMB scaffold)], for which the Ki was 497 nM. This lies in the sub-micromolar range.
The same measure, in the same setting: next, [Sar][Sar]ACP[2Nal]GPFWCPVNRPGC (linker 4-11-18 via TBMB, also called Compound 77) [Bicycle Compound Number 77 (TBMB scaffold)]: 458 nM; [Sar][Sar]ACPWGPYWCPVNRPGC (linker 4-11-18 via TBMB′, also called Compound 91) [Bicycle Compound Number 91 (TBMB scaffold)]: 138 nM.
With [Sar][Sar]ACPWGPFWCPVARPGC (linker 4-11-18 via TBMB) [Bicycle Compound Number 101 (TBMB scaffold)], the Ki is 265 nM.
In the case of [Sar][Sar]ACPWGPFWCPVNR[dA]GC (linker 4-11-18 via TBMB) [Bicycle Compound Number 105 (TBMB scaffold)], the Ki turned out to be 471 nM. This Ki lies about 1.8-fold higher than the previous one.
Molecule [Sar][Sar]AC[Aib]WGPFWCPVNRPGC (linker 4-11-18 via TBMB, also called Compound 74) [Bicycle Compound Number 74 (TBMB scaffold)] had a Ki of 139 nM. Compared with the last molecule, the Ki is about 3.4-fold lower.
Take ACPWGPMWCPVNRPGCA (linker 2-9-16 via TBMB (inferred), also called Compound 46) [Bicycle Compound Number 46 (TBMB scaffold)]: the Ki is 95.8 nM. This Ki and that of the molecule before are within 1.5-fold of each other.
On to [Sar][Sar]ACPWGP[Phe(4-Br)]WCPVNRPGC (linker 4-11-18 via TBMB′, also called Compound 85) [Bicycle Compound Number 85 (TBMB scaffold)], for which the Ki was 174 nM.
